According to patent publication US20120269822A1 (published 2012):

What was measured:
[1] = biological target: T1, BoNT/A Lc448, truncated botulinum neurotoxin serotype A light chain containing residues 1-448 (Clostridium botulinum, UniProt P0DPI0 1-448)
[2] = biological target: T1, BoNT/A Lc448, truncated botulinum …; assay: KinExA; calculated as KD × kon
[3] = biological target: T1, BoNT/A Lc448, truncated botulinum …; assay: flow cytometry, yeast-displayed VHH titrated with soluble BoNT/A Lc448
[4] = biological target: T1, BoNT/A Lc448, truncated botulinum …; assay: KinExA flow fluorimetry, solution kinetics, purified Aa1 VHH and BoNT/A Lc448
[5] = biological target: T1, BoNT/A Lc448, truncated botulinum …; assay: KinExA flow fluorimetry, solution equilibrium, purified Aa1 VHH and BoNT/A Lc448

T1 sequence (P0DPI0 1-448 limits assumed): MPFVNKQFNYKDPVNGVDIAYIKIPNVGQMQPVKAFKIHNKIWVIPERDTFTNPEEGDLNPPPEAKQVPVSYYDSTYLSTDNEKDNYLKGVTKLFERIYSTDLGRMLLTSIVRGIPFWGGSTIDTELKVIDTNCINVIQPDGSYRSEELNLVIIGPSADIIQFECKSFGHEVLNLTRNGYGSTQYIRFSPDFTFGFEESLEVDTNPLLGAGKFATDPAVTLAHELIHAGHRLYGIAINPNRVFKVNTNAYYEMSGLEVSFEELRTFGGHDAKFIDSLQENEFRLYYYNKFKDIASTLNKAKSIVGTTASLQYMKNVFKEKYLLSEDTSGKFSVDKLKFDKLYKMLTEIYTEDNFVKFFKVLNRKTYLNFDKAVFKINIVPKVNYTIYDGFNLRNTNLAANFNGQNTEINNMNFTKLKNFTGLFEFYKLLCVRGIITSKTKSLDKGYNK

B1: Aa1 VHH (VHH)
VHH: AVQLVDSGGGTLQAGKSLRLSCAISGLAFDGGAMGSEHRLTAGAMGWFRQAPGKDREFVAAISPRTDETYYAESLEGRFSVSRDAAATMVFLEADNVRLDDTASYYCAADEDVTPRVMGVIPHADHWGQGTLVTVSS
For B1, the “IC50 (read off the curve)” value [1] was roughly 0.1 nM, the koff [2] was 0.00666 s⁻¹ and the Kd [3] was 0.03 nM. For the same binder, the kon [4] was 4.39e+07 M⁻¹ s⁻¹ and the Kd [5] was 0.147 nM.

B2: A26 VHH (VHH)
VHH: DVQLVESGGGLVQPGGSLRLSCVVSGLTSTEYAIGWFRQAPGKEREGVACLVVSGHNSGRTHYSAAVKGRFTVSQDDATNTAILHMDNLQPKDTAVYYCAAEVSSGQPAVTTFWEDMYDYWGQGTQVTVSS
Work on B2 yielded a Kd [3] of 8.7 nM.

B3: A23 VHH (VHH)
VHH: AVQLVESGGGAVSPGGSLKLSCTASGLAFNGGAMGSEHRLTAGAMGWFRQAPGKDREFVAAIHPRTNDTYYSGTLEDRFTISIDDAKMTVYLQADSLRLEDTAVYSCAADEDVTPRGMGVIPYAEYWGQGTQVTVSS
Binder B3 has a Kd [3] of 16.9 nM.

B4: A21 VHH (VHH)
VHH: QVQLVESGGGVVQAGGSLRLSCVASGFTIDDYPVAWFRQAPGKEREAVSCIGNRGGTTYYADSVKGRFSISRDDAKDTVYLQMNNLKSEDTAVYYCVKDLGSVGPGAEYDYWGQGTLVTVSS
With B4 the Kd [3] was 60.7 nM.

B5: Aa11 VHH (VHH)
VHH: QVQLVESGGGLVQAGGSLRLSCAASGRTFSSYAMGWFRQAPGKEREFVAAISWSGGSTYYADSVKGRFTISRDDARNTVTLLMNSLKPEDTAVYFCNAWSLEEQYWGQGTQVTVSS
In the case of B5, the Kd [3] is reported as 76.1 nM.

B6: Aa6 VHH (VHH)
VHH: AVQLVESGGGLVASGGSLRLSCAASDFKFSDYWMHWIRQAPGKEREFVASIGWNGEITDYEESIEGRFAISRDNNKYTLYLEMRDLIPEDTGLYYCAASSDYRWSRQPFEFENWGQGTQVTVSS
With B6 the Kd [3] was 0.52 nM.

B7: Aa9 VHH (VHH)
VHH: QVQLVESGGGMVQPGGSLRLSCKGSGSVFMFYDMGWYRQAPGNQRELVAVMGPGGNTNYADAVKGRFTVARNIDEDTVSLLMTNLEPEDTAVYYCAADFDTPWGASGRYDYWGQGTQVTVSS
With B7 the Kd [3] was 4.08 nM.

B8: Aa8 VHH (VHH)
VHH: AVQLVESGGGLVQAGDSLRLSCTLSGGTFRHYAMSWFRQAPGKERVFVARIDYDGAMKYYADSVKGRFTISRDNAKNTMYLQMNSLKPEDTAVYYCNAHWDYGLGPEWDYWGQGTLVTVSS
B8 gave a Kd [3] of 112 nM.

B9: A19 VHH (VHH)
VHH: EVQLVESGGGLVQPGGSLRLSCAASGFTFSGSAMSWVRQTPGKGLEWVSFISRSGSVTEYADSVKGRFTIARDNAPNTVYLQMNSLKPEDTAVYYCTADSYVDYEDDRLKWHHSWGQGTQVTVSS
For B9, the Kd [3] was 4.65 nM.
